Data reported in patent US20020042368A1.

Target: α6β1. α6β4 (human) (UniProt P23229)
Test: flow cytometry on HMVEC-d; dis-Fc binding with 5-8 fold excess α6β1/α6β4 mAb (GoH3, 439-9B; competitor) vs control mAb

ADAM-22dis-Fc (Fc fusion), sequence (chain): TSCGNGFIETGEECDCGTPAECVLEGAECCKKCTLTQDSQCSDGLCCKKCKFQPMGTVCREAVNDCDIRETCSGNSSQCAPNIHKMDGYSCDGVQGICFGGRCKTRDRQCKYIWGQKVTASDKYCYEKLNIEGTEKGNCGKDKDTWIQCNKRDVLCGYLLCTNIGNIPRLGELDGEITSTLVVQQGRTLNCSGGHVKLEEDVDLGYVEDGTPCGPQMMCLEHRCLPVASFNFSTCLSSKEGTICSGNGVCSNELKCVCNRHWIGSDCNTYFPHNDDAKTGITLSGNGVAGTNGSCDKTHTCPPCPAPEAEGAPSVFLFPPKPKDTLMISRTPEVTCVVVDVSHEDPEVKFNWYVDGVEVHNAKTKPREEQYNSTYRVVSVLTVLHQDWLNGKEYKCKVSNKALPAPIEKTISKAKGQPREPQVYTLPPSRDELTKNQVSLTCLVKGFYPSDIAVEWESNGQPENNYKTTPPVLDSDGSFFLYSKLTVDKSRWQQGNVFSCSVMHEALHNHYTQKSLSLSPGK
ADAM-23dis-Fc (Fc fusion), sequence (chain): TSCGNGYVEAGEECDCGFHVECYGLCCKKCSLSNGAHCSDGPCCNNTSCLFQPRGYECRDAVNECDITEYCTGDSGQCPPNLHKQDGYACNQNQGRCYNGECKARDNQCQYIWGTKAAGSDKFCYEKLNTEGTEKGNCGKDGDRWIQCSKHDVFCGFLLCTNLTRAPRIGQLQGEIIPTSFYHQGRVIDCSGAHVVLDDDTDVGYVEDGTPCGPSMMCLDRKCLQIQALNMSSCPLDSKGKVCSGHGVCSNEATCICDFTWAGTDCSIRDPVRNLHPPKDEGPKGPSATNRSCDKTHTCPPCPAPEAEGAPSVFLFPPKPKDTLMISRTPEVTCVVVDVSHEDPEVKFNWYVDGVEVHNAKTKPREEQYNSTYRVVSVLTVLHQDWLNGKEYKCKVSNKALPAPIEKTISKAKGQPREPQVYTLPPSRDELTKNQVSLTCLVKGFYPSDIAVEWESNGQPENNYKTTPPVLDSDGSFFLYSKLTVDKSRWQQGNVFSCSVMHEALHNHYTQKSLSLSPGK

| percent inhibition of binding [%] | Substance |
| --- | --- |
| 32 | ADAM-22dis-Fc (Fc fusion) |
| 31 | ADAM-23dis-Fc (Fc fusion) |
